17 sequences from the supplement of paper PMC9170038 can be followed below.

The series has as its system K4 kissing-loop RNA reporter. Nature of the series: apparent KD of K4 kissing-loop reporter; higher = weaker reporter binding. The settings on record: Eterna round: R107. The procedure:
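RNA-MaP round R107: designed RNA switches with theophylline, tryptophan, arginine or FMN aptamers are transcribed on-chip within common flanks. They are titrated with a labelled K4 kissing-loop RNA reporter in RNA-MaP buffer (100 mM Tris pH 7.5, 80 mM KCl, 4 mM MgCl2), without ligand or with the indicated ligand. Median apparent KD per design.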

[1] abbreviates: input ligand: theophylline 20 uM.
[2] abbreviates: input ligand: tryptophan 2.4 mM.
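Also: bound reporter read as fluorescence of individual clusters on recovered sequencing chips by microscopy, with normalized cluster intensities fitted with a binding model.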

Turning to “AAACAUUGGUCGGAUACCAGCUGAUCGGAAACGAUCUUGCUGGAGUGAUGUUCCAAGUAAAGCCCUUGGCAGCCGACCGAUGAAA [MAT - Same State Theophlline B - Mod of Eli - D20]”, the “apparent KD of K4 kissing-loop reporter” value came out at 140 nM (input ligand: FMN 200 uM); 50.4 nM (input ligand: arginine 13.2 mM); 63.2 nM (input ligand: none); 135 nM under setting [1]; 85.8 nM under setting [2].

As for “AAACCAAUCAGAGGAUAUUCUUUAUUCGACAUAACCUUCUAUAAGGUGCAGUGAUGUUGCAAUAUAGGAGAAGGCUGAUUGACAA [Exclusion FMN B Gf 13]”, the “apparent KD of K4 kissing-loop reporter” value (input ligand: FMN 200 uM) was 232 nM; the “apparent KD of K4 kissing-loop reporter” value (input ligand: arginine 13.2 mM) was found to be 338 nM; the “apparent KD of K4 kissing-loop reporter” value (input ligand: none) stood at 516 nM; the “apparent KD of K4 kissing-loop reporter” value under setting [1] turned out to be 488 nM; the “apparent KD of K4 kissing-loop reporter” value under setting [2] came to 413 nM.

With “AAACCCAGUGAUGUUGGGAAUCAGUUGAGGGAGGAUAUUGGUAAUACAAGAAGGCCCGGCUGCGGGUGAUGUUCGCAUUAGGGCC [Exclusion FMN A GF17]”, the “apparent KD of K4 kissing-loop reporter” value amounted to 160 nM (input ligand: FMN 200 uM); 157 nM (input ligand: arginine 13.2 mM); 152 nM (input ligand: none); 154 nM under setting [1]; 140 nM under setting [2].

Turning to “AAACGCUGUGAAUAACACAGCGAAAAUUCGCGAGGACCGGUACGGCCGCCACUCGCUAACUGCGAGUGAUGUUCGAUAAUAAAAU [Mat - Mod of OpenEnded 3 - D11]”, the “apparent KD of K4 kissing-loop reporter” value turned out to be 182 nM (input ligand: FMN 200 uM); 94.8 nM (input ligand: arginine 13.2 mM); 198 nM (input ligand: none); 210 nM under setting [1]; 105 nM under setting [2].

“AAACGUUGGUGCGAUACCAGCUGAUCGGAAACGAUCUUGCUGGAGUGAUGUUCCAAGUAAAGCCCUUGGCAGCGCACCGACGAAA [MAT - Same State Theophlline B - Mod of Eli - D22]”: the “apparent KD of K4 kissing-loop reporter” value is 92.5 nM (input ligand: FMN 200 uM); 58.4 nM (input ligand: arginine 13.2 mM); 86.5 nM (input ligand: none); 145 nM under setting [1]; 69.3 nM under setting [2].

For “AAACGUUGGUGCGAUACCAGCUUGAUCGGUAAACGAUCUACUGGAGUGAUGUUCCUAAAUAGCCCUUGGCAGCGCACCGACGAAA [MAT - Same State Theophlline B - Mod of Eli - D8]”, the “apparent KD of K4 kissing-loop reporter” value (input ligand: FMN 200 uM) is 181 nM; the “apparent KD of K4 kissing-loop reporter” value (input ligand: arginine 13.2 mM) stood at 155 nM; the “apparent KD of K4 kissing-loop reporter” value (input ligand: none) is 169 nM; the “apparent KD of K4 kissing-loop reporter” value under setting [1] was 128 nM; the “apparent KD of K4 kissing-loop reporter” value under setting [2] was 166 nM.

Turning to “AAACUUGCAGUGAUGUUGCAAGUAGGUGAUACCAGCAUCGAAAGAUGCCCUUGGCAGCACCAACACUGCAAGUAAGUAUCACCAA [(H1)-(H2)-(T1)-(T2)-(H)'-(T)'_Design1]”, the “apparent KD of K4 kissing-loop reporter” value (input ligand: FMN 200 uM) turned out to be 116 nM; the “apparent KD of K4 kissing-loop reporter” value (input ligand: arginine 13.2 mM) was found to be 138 nM; the “apparent KD of K4 kissing-loop reporter” value (input ligand: none) turned out to be 128 nM; the “apparent KD of K4 kissing-loop reporter” value under setting [1] amounted to 161 nM; the “apparent KD of K4 kissing-loop reporter” value under setting [2] worked out at 111 nM.

Take “AAACUUGCAGUGAUGUUGCAAGUAGGUGAUACCAGCAUCGAAAGAUGCCCUUGGCAGCACCAUCUUGCAACAAAGGUGCUGCCAA [(H1)-(H2)-(T1)-(T2)-(H)'-(T)'_Design7]”: the “apparent KD of K4 kissing-loop reporter” value reads like this: (input ligand: FMN 200 uM) 87.5 nM; (input ligand: arginine 13.2 mM) 77.4 nM; (input ligand: none) 88.2 nM; under setting [1], 67.6 nM; under setting [2], 81.2 nM.

With “AAAGAGUCACUCGAAGCUAUCGAAGAUAGGCGAGGACCGGUACGGCCGCCACUCGGAGUGAUGUUCCGAAGACUGUAAAAUAAAA [MatMod 12 - Jieux - Exclusion - Tryptophan A]”, the “apparent KD of K4 kissing-loop reporter” value by setting is: (input ligand: FMN 200 uM) 208 nM; (input ligand: arginine 13.2 mM) 240 nM; (input ligand: none) 206 nM; under setting [1], 170 nM; under setting [2], 295 nM.

Consider “AAAGCAUUGAGAAGGAGCGUGACGUGGAGUGAUGUUCCAUUGUAGUAAUAAUUACUACUAUCACAGGUAGGUCGCUCAUUGCUAA [JR_Nu_SSArginiB_Sub024]”, for which the “apparent KD of K4 kissing-loop reporter” value reads like this: (input ligand: FMN 200 uM) 183 nM; (input ligand: arginine 13.2 mM) 159 nM; (input ligand: none) 181 nM; under setting [1], 161 nM; under setting [2], 180 nM.

With “AAAUAGGUGUGCGAUACCAGCCGGAGUGAUGUUCCGUGUUGUACUGGCUGCACCUACGCCGGCCCUUGGCAGCGUGCUCCAUUUA [Enonin]”, the “apparent KD of K4 kissing-loop reporter” value (input ligand: FMN 200 uM) worked out at 177 nM; the “apparent KD of K4 kissing-loop reporter” value (input ligand: arginine 13.2 mM) stood at 140 nM; the “apparent KD of K4 kissing-loop reporter” value (input ligand: none) amounted to 169 nM; the “apparent KD of K4 kissing-loop reporter” value under setting [1] is 263 nM; the “apparent KD of K4 kissing-loop reporter” value under setting [2] was 148 nM.

For the sequence “AAAUAUUCGAGUGAUGUUCGUUAAAUUACAGAGGAUAUGCUUAAAAGCAGAAGGCUGUAUUUCUAUUUGUUAUGUAAUUUUAAAA [JR_ExcFMNA_Sub004]”, the “apparent KD of K4 kissing-loop reporter” value (input ligand: FMN 200 uM) stood at 117 nM; the “apparent KD of K4 kissing-loop reporter” value (input ligand: arginine 13.2 mM) was 209 nM; the “apparent KD of K4 kissing-loop reporter” value (input ligand: none) is 157 nM; the “apparent KD of K4 kissing-loop reporter” value under setting [1] was 196 nM; the “apparent KD of K4 kissing-loop reporter” value under setting [2] turned out to be 115 nM.

As for “AAAUCUUUCAGAAGGAGCGUGGAUUAUUCAUAUAUAUUUAUUACGAGUGAUGUUCGUAAUUCACAGGUAGGUCGCUGUUCAAUAA [JR_ExcArginiB_Sub005]”, the “apparent KD of K4 kissing-loop reporter” value runs as follows: (input ligand: FMN 200 uM) 117 nM; (input ligand: arginine 13.2 mM) 116 nM; (input ligand: none) 113 nM; under setting [1], 116 nM; under setting [2], 102 nM.

“AAAUGCUUGUAUUUGAACAAUUCCUUUAGGGAGGAUAUUGGUAAUACAAGAAGGCCCUGAUGGGAGUGAUGUUCCCAUAACGCGG [Exclusion FMN A GF16]”: the “apparent KD of K4 kissing-loop reporter” value came out at 114 nM (input ligand: FMN 200 uM); 95 nM (input ligand: arginine 13.2 mM); 90.8 nM (input ligand: none); 90.2 nM under setting [1]; 91.1 nM under setting [2].

Take “AAAUGUUUGUAUUUGAACAAUUUCUUUAGGGAGGAUAUUGGUAAUACAAGAAGGCCCUGAUGGGAGUGAUGUUCCCAUAACGCGG [Exclusion FMN A GF15]”: the “apparent KD of K4 kissing-loop reporter” value (input ligand: FMN 200 uM) worked out at 46.7 nM; the “apparent KD of K4 kissing-loop reporter” value (input ligand: arginine 13.2 mM) stood at 83.9 nM; the “apparent KD of K4 kissing-loop reporter” value (input ligand: none) came out at 74 nM; the “apparent KD of K4 kissing-loop reporter” value under setting [1] is 87.5 nM; the “apparent KD of K4 kissing-loop reporter” value under setting [2] amounted to 62.1 nM.

Take “AAAUUCUUUUUUUUAUUUAAGUUUUCAGAAGGAGCGUGGUAGUACACAGGUAGGUCGCUGAAUUUUGGGCUAGUGAUGUUAGUUA [whbob_SS_Arginine_A_sa114]”: the “apparent KD of K4 kissing-loop reporter” value is, setting by setting: (input ligand: FMN 200 uM) 144 nM; (input ligand: arginine 13.2 mM) 195 nM; (input ligand: none) 200 nM; under setting [1], 191 nM; under setting [2], 160 nM.

Take “AAAUUUAUUAUAUUUGAAUAAAUAUGUGAUACCAGACAUUUAUAAGUCCCUUGGCAGCACAAUGCAGUGAUGUUGCUUAUAAUAA [JR_SSTheophyA_Sub018]”: the “apparent KD of K4 kissing-loop reporter” value amounted to 89 nM (input ligand: FMN 200 uM); 110 nM (input ligand: arginine 13.2 mM); 93 nM (input ligand: none); 182 nM under setting [1]; 73.8 nM under setting [2].
